Results on one molecule are retold here after patent US20090104196A1 (UNIVERSITAETSKLINIKUM FREIBURG, published 2009).

The target of this experiment is T1, LSD1 1-174 (N-terminus of LSD1), labelled (UniProt O60341 1-174).
T1 construct: Labelled LSD1 deletion mutant used in the GST pull-down; not shown: Flag tag of the CMX-Flag vector
The experiment can be described thus: GST pull-down, labelled LSD1 mutant. As to the method: GST, GST-Nix1, GST-ROR[…], and GST ERβ-NTD proteins were used as control. (NTD; N-terminal domain, DBD; DNA-binding domain, LBD; ligand-binding domain).
GST pull-down assays were performed with equal amounts of GST or GST fusion proteins as described¹⁷ using buffer containing either 150 mM KCl, 0.15% NP40 (FIG. 1b) or 600 mM KCl, 0.3% NP40 (FIG. 7a). Pull-downs with sepharose coupled histone H3 tail were performed as described²⁷ in 20 mM Tris pH 8.5, 150 mM NaCl, 0.5% NP40.10% of the in vitro translated proteins were loaded as input.

B1: GST-AR-DBD (GST fused to the DNA-binding domain of the androgen receptor), bacterially expressed (other, UniProt P10275 560-632, looked up)
chain: CLICGDEASGCHYGALTCGSCKVFFKRAAEGKQKYLCASRNDCTIDKFRRKNCPSCRLRKCYEAGMTLGARKL
notes: also called GST-AR fusion protein; not shown: glutathione S-transferase (GST) fusion partner
Consider B1, for which the binding result is reported as “no binding”.
